T1: FcγRIIb (human, UniProt P31994 43-217)
T1 construct: extracellular domain; also called FcgRIIb
T1 sequence (looked up): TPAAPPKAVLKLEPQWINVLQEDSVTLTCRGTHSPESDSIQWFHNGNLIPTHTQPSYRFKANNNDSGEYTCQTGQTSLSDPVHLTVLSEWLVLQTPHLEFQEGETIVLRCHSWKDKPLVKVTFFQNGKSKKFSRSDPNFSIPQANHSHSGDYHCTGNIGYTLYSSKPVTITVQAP

T2: FcγRIIa R (human, UniProt P12318 34-217)
T2 construct: extracellular domain; also called FcgRIIa R; FcγRIIa type R
T2 sequence (looked up): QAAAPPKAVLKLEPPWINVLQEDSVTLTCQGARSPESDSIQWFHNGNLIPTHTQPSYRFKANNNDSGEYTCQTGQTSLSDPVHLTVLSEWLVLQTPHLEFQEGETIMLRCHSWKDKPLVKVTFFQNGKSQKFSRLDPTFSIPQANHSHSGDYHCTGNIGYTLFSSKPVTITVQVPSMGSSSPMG


Experiments:
FcγRIIb = target: T1, FcγRIIb; assay: SPR (Biacore), captured antibody, FcγR analyte; binding relative to GpH7-A5/GpH7-B3/GpL16-k0 = 100
FcγRIIa R [1] = target: T2, FcγRIIa R; assay: as above
FcγRIIa R [2] = target: T2, FcγRIIa R; assay: He/Con_2aR divided by He/Con_2b (FcγRIIa R over FcγRIIb); SPR (Biacore)

He/Con_2b (IIb binding) (FcγRIIb) [control=100] | He/Con_2aR (IIaR binding) (FcγRIIa R [1]) [control=100] | IIaR/IIb (He_2aR/2b) (FcγRIIa R [2]) [ratio] | Binder
45.7 | 67.9 | 1.49 | GpH7-A5/GpH7-B3 variant P329_15Y/GpL16-k0 (antibody, human IgG1, kappa, He Ab; IgG1; mutation in one H chain only) heavy 1: not shown heavy 2: not shown light: DIVMTQSPLSLPVTPGEPASISCQASESLVHSNRNTYLHWYLQKPGQSPQLLIYKVSNRFSGVPDRFSGSGSGTDFTLKISRVEAEDVGVYYCSQNTHVPPTFGQGTKVEIERTVAAPSVFIFPPSDEQLKSGTASVVCLLNNFYPREAKVQWKVDNALQSGNSQESVTEQDSKDSTYSLSSTLTLSKADYEKHKVYACEVTHQGLSSPVTKSFNRGEC
39.1 | 56.7 | 1.45 | GpH7-A5/GpH7-B3 variant P329_16H/GpL16-k0 (antibody, human IgG1, kappa, He Ab; IgG1; mutation in one H chain only) heavy 1: not shown heavy 2: not shown light: DIVMTQSPLSLPVTPGEPASISCQASESLVHSNRNTYLHWYLQKPGQSPQLLIYKVSNRFSGVPDRFSGSGSGTDFTLKISRVEAEDVGVYYCSQNTHVPPTFGQGTKVEIERTVAAPSVFIFPPSDEQLKSGTASVVCLLNNFYPREAKVQWKVDNALQSGNSQESVTEQDSKDSTYSLSSTLTLSKADYEKHKVYACEVTHQGLSSPVTKSFNRGEC
40.4 | 61.2 | 1.51 | GpH7-A5/GpH7-B3 variant P329_18N/GpL16-k0 (antibody, human IgG1, kappa, He Ab; IgG1; mutation in one H chain only) heavy 1: not shown heavy 2: not shown light: DIVMTQSPLSLPVTPGEPASISCQASESLVHSNRNTYLHWYLQKPGQSPQLLIYKVSNRFSGVPDRFSGSGSGTDFTLKISRVEAEDVGVYYCSQNTHVPPTFGQGTKVEIERTVAAPSVFIFPPSDEQLKSGTASVVCLLNNFYPREAKVQWKVDNALQSGNSQESVTEQDSKDSTYSLSSTLTLSKADYEKHKVYACEVTHQGLSSPVTKSFNRGEC
30.7 | 41.1 | 1.34 | GpH7-A5/GpH7-B3 variant P329_19Q/GpL16-k0 (antibody, human IgG1, kappa, He Ab; IgG1; mutation in one H chain only) heavy 1: not shown heavy 2: not shown light: DIVMTQSPLSLPVTPGEPASISCQASESLVHSNRNTYLHWYLQKPGQSPQLLIYKVSNRFSGVPDRFSGSGSGTDFTLKISRVEAEDVGVYYCSQNTHVPPTFGQGTKVEIERTVAAPSVFIFPPSDEQLKSGTASVVCLLNNFYPREAKVQWKVDNALQSGNSQESVTEQDSKDSTYSLSSTLTLSKADYEKHKVYACEVTHQGLSSPVTKSFNRGEC
45.4 | 61 | 1.34 | GpH7-A5/GpH7-B3 variant P331_01G/GpL16-k0 (antibody, human IgG1, kappa, He Ab; IgG1; mutation in one H chain only) heavy 1: not shown heavy 2: not shown light: DIVMTQSPLSLPVTPGEPASISCQASESLVHSNRNTYLHWYLQKPGQSPQLLIYKVSNRFSGVPDRFSGSGSGTDFTLKISRVEAEDVGVYYCSQNTHVPPTFGQGTKVEIERTVAAPSVFIFPPSDEQLKSGTASVVCLLNNFYPREAKVQWKVDNALQSGNSQESVTEQDSKDSTYSLSSTLTLSKADYEKHKVYACEVTHQGLSSPVTKSFNRGEC
47.6 | 65.1 | 1.37 | GpH7-A5/GpH7-B3 variant S298_10E/GpL16-k0 (antibody, human IgG1, kappa, He Ab; IgG1; mutation in one H chain only) heavy 1: not shown heavy 2: not shown light: DIVMTQSPLSLPVTPGEPASISCQASESLVHSNRNTYLHWYLQKPGQSPQLLIYKVSNRFSGVPDRFSGSGSGTDFTLKISRVEAEDVGVYYCSQNTHVPPTFGQGTKVEIERTVAAPSVFIFPPSDEQLKSGTASVVCLLNNFYPREAKVQWKVDNALQSGNSQESVTEQDSKDSTYSLSSTLTLSKADYEKHKVYACEVTHQGLSSPVTKSFNRGEC
61.3 | 95.1 | 1.55 | GpH7-A5/GpH7-B3 variant S298_11K/GpL16-k0 (antibody, human IgG1, kappa, He Ab; IgG1; mutation in one H chain only) heavy 1: not shown heavy 2: not shown light: DIVMTQSPLSLPVTPGEPASISCQASESLVHSNRNTYLHWYLQKPGQSPQLLIYKVSNRFSGVPDRFSGSGSGTDFTLKISRVEAEDVGVYYCSQNTHVPPTFGQGTKVEIERTVAAPSVFIFPPSDEQLKSGTASVVCLLNNFYPREAKVQWKVDNALQSGNSQESVTEQDSKDSTYSLSSTLTLSKADYEKHKVYACEVTHQGLSSPVTKSFNRGEC
57.8 | 85.3 | 1.48 | GpH7-A5/GpH7-B3 variant S298_12R/GpL16-k0 (antibody, human IgG1, kappa, He Ab; IgG1; mutation in one H chain only) heavy 1: not shown heavy 2: not shown light: DIVMTQSPLSLPVTPGEPASISCQASESLVHSNRNTYLHWYLQKPGQSPQLLIYKVSNRFSGVPDRFSGSGSGTDFTLKISRVEAEDVGVYYCSQNTHVPPTFGQGTKVEIERTVAAPSVFIFPPSDEQLKSGTASVVCLLNNFYPREAKVQWKVDNALQSGNSQESVTEQDSKDSTYSLSSTLTLSKADYEKHKVYACEVTHQGLSSPVTKSFNRGEC
77.9 | 98.5 | 1.26 | GpH7-A5/GpH7-B3 variant S298_14T/GpL16-k0 (antibody, human IgG1, kappa, He Ab; IgG1; mutation in one H chain only) heavy 1: not shown heavy 2: not shown light: DIVMTQSPLSLPVTPGEPASISCQASESLVHSNRNTYLHWYLQKPGQSPQLLIYKVSNRFSGVPDRFSGSGSGTDFTLKISRVEAEDVGVYYCSQNTHVPPTFGQGTKVEIERTVAAPSVFIFPPSDEQLKSGTASVVCLLNNFYPREAKVQWKVDNALQSGNSQESVTEQDSKDSTYSLSSTLTLSKADYEKHKVYACEVTHQGLSSPVTKSFNRGEC
61.4 | 79.1 | 1.29 | GpH7-A5/GpH7-B3 variant S298_15Y/GpL16-k0 (antibody, human IgG1, kappa, He Ab; IgG1; mutation in one H chain only) heavy 1: not shown heavy 2: not shown light: DIVMTQSPLSLPVTPGEPASISCQASESLVHSNRNTYLHWYLQKPGQSPQLLIYKVSNRFSGVPDRFSGSGSGTDFTLKISRVEAEDVGVYYCSQNTHVPPTFGQGTKVEIERTVAAPSVFIFPPSDEQLKSGTASVVCLLNNFYPREAKVQWKVDNALQSGNSQESVTEQDSKDSTYSLSSTLTLSKADYEKHKVYACEVTHQGLSSPVTKSFNRGEC
63.5 | 88.5 | 1.39 | GpH7-A5/GpH7-B3 variant S298_16H/GpL16-k0 (antibody, human IgG1, kappa, He Ab; IgG1; mutation in one H chain only) heavy 1: not shown heavy 2: not shown light: DIVMTQSPLSLPVTPGEPASISCQASESLVHSNRNTYLHWYLQKPGQSPQLLIYKVSNRFSGVPDRFSGSGSGTDFTLKISRVEAEDVGVYYCSQNTHVPPTFGQGTKVEIERTVAAPSVFIFPPSDEQLKSGTASVVCLLNNFYPREAKVQWKVDNALQSGNSQESVTEQDSKDSTYSLSSTLTLSKADYEKHKVYACEVTHQGLSSPVTKSFNRGEC
48.1 | 68 | 1.41 | GpH7-A5/GpH7-B3 variant S298_18N/GpL16-k0 (antibody, human IgG1, kappa, He Ab; IgG1; mutation in one H chain only) heavy 1: not shown heavy 2: not shown light: DIVMTQSPLSLPVTPGEPASISCQASESLVHSNRNTYLHWYLQKPGQSPQLLIYKVSNRFSGVPDRFSGSGSGTDFTLKISRVEAEDVGVYYCSQNTHVPPTFGQGTKVEIERTVAAPSVFIFPPSDEQLKSGTASVVCLLNNFYPREAKVQWKVDNALQSGNSQESVTEQDSKDSTYSLSSTLTLSKADYEKHKVYACEVTHQGLSSPVTKSFNRGEC
73.3 | 95 | 1.3 | GpH7-A5/GpH7-B3 variant S298_19Q/GpL16-k0 (antibody, human IgG1, kappa, He Ab; IgG1; mutation in one H chain only) heavy 1: not shown heavy 2: not shown light: DIVMTQSPLSLPVTPGEPASISCQASESLVHSNRNTYLHWYLQKPGQSPQLLIYKVSNRFSGVPDRFSGSGSGTDFTLKISRVEAEDVGVYYCSQNTHVPPTFGQGTKVEIERTVAAPSVFIFPPSDEQLKSGTASVVCLLNNFYPREAKVQWKVDNALQSGNSQESVTEQDSKDSTYSLSSTLTLSKADYEKHKVYACEVTHQGLSSPVTKSFNRGEC
41.1 | 55.4 | 1.35 | GpH7-A5/GpH7-B3 variant S298_20W/GpL16-k0 (antibody, human IgG1, kappa, He Ab; IgG1; mutation in one H chain only) heavy 1: not shown heavy 2: not shown light: DIVMTQSPLSLPVTPGEPASISCQASESLVHSNRNTYLHWYLQKPGQSPQLLIYKVSNRFSGVPDRFSGSGSGTDFTLKISRVEAEDVGVYYCSQNTHVPPTFGQGTKVEIERTVAAPSVFIFPPSDEQLKSGTASVVCLLNNFYPREAKVQWKVDNALQSGNSQESVTEQDSKDSTYSLSSTLTLSKADYEKHKVYACEVTHQGLSSPVTKSFNRGEC
